Source: IntAct's records for PubMed 16467851

B1: 1-phosphatidylinositol 4,5-bisphosphate phosphodiesterase gamma-1 (Bos taurus (Bovine)), P08487 (parent)
chain: MAGAASPCANGCGPSAPSDAEVVHLCRSLEVGTVMTLFYSKKSQRPERKTFQVKLETRQITWSRGADKIEGAIDIREIKEIRPGKTSRDFDRYQEDPAFRPDQSHCFVILYGMEFRLKTLSLQATSEDEVNMWIRGLTWLMEDTLQAATPLQIERWLRKQFYSVDRNREDRISAKDLKNMLSQVNYRVPNMRFLRERLTDLEQRTSDITYGQFAQLYRSLMYSAQKTMDLPFLEASALRAGERPELCRVSLPEFQQFLLEYQGELWAVDRLQVQEFMLSFLRDPLREIEEPYFFLDEFVTFLFSKENSIWNSQLDEVCPDTMNNPLSHYWISSSHNTYLTGDQFSSESSLEAYARCLRMGCRCIELDCWDGPDGMPVIYHGHTLTTKIKFSDVLHTIKEHAFVASEYPVILSIEDHCSIAQQRNMAQYFKKVLGDTLLTKPVDIAADGLPSPNQLKRKILIKHKKLAEGSAYEEVPTSVMYSENDISNSIKNGILYLEDPVNHEWYPHYFVLTSSKIYYSEETSSDQGNEDEEEPKEASGSTELHSNEKWFHGKLGAGRDGRHIAERLLTEYCIETGAPDGSFLVRESETFVGDYTLSFWRNGKVQHCRIHSRQDAGTPKFFLTDNLVFDSLYDLITHYQQVPLRCNEFEMRLSEPVPQTNAHESKEWYHASLTRAQAEHMLMRVPRDGAFLVRKRNEPNSYAISFRAEGKIKHCRVQQEGQTVMLGNSEFDSLVDLISYYEKHPLYRKMKLRYPINEEALEKIGTAEPDYGALYEGRNPGFYVEANPMPTFKCAVKALFDYKAQREDELTFTKSAIIQNVEKQEGGWWRGDYGGKKQLWFPSNYVEEMVSPAALEPEREHLDENSPLGDLLRGVLDVPACQIAVRPEGKNNRLFVFSISMASVAHWSLDVAADSQEELQDWVKKIREVAQTADARLTEGKMMERRKKIALELSELVVYCRPVPFDEEKIGTERACYRDMSSFPETKAEKYVNKAKGKKFLQYNRLQLSRIYPKGQRLDSSNYDPLPMWICGSQLVALNFQTPDKPMQMNQALFLAGGHCGYVLQPSVMRDEAFDPFDKSSLRGLEPCAICIEVLGARHLPKNGRGIVCPFVEIEVAGAEYDSIKQKTEFVVDNGLNPVWPAKPFHFQISNPEFAFLRFVVYEEDMFSDQNFLAQATFPVKGLKTGYRAVPLKNNYSEGLELASLLVKIDVFPAKQENGDLSPFGGASLRERSCDASGPLFHGRAREGSFEARYQQPFEDFRISQEHLADHFDGRDRRTPRRTRVNGDNRL
partner: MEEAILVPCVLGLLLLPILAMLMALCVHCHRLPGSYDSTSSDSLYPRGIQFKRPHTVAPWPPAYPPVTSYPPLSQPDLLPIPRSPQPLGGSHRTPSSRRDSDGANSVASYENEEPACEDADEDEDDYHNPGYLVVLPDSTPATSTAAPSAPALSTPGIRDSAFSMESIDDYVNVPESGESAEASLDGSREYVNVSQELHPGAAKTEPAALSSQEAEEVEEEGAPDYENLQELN
B2: 1-phosphatidylinositol 4,5-bisphosphate phosphodiesterase gamma-1 (Bos taurus (Bovine)), P08487 (parent)
chain: B1 chain
B3: 1-phosphatidylinositol 4,5-bisphosphate phosphodiesterase gamma-1 (Bos taurus (Bovine)), P08487 (parent)
chain: B1 chain
partner: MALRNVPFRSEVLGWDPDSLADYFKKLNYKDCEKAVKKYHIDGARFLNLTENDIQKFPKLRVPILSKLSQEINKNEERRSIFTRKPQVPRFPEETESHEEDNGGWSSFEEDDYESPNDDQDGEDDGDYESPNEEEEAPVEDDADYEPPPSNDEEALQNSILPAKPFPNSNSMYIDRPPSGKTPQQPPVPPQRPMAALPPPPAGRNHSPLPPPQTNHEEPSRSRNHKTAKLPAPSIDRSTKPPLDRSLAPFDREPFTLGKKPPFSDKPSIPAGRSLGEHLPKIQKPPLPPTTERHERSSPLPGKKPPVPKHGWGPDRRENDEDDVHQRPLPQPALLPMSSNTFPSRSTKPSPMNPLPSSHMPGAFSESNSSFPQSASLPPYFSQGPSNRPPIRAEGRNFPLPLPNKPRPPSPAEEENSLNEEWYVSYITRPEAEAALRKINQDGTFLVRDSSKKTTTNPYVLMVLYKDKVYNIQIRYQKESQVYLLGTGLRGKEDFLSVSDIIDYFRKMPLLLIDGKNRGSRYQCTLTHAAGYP
B4: 1-phosphatidylinositol 4,5-bisphosphate phosphodiesterase gamma-1 (Bos taurus (Bovine)), P08487 (parent)
chain: B1 chain
partner: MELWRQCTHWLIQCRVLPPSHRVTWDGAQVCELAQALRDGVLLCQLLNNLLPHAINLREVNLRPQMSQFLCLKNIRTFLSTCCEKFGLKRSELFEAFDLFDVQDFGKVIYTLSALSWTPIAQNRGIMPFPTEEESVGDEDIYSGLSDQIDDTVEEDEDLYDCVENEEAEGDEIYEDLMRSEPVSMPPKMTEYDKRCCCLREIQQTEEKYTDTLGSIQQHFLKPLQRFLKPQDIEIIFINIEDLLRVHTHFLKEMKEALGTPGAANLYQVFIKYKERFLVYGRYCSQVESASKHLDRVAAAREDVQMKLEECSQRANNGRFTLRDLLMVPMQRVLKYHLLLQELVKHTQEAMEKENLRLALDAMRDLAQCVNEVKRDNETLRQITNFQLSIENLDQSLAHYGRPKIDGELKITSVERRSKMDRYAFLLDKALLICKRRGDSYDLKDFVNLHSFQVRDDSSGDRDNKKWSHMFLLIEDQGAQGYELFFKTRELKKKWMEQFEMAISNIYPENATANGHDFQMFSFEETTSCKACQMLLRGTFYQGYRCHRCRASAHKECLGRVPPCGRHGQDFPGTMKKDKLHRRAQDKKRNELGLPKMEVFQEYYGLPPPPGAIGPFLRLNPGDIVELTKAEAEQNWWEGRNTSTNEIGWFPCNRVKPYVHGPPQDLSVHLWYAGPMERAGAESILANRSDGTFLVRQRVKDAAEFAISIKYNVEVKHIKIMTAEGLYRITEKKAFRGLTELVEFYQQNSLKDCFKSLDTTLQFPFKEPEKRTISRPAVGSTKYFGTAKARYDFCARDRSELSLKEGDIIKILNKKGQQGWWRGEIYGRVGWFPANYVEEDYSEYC

Variants of: B1
Details: with LAT

Variant	effect of a mutation on the interaction
R586K	disrupting interaction

Variants of: B1
Details: with LAT
Remark: another data set of the same source

Variant	effect of a mutation on the interaction
R694K	disrupting interaction
R696K	disrupting interaction
P842K	disrupting interaction

Variants of: B2
Details: with cbl_human CBL

Variant	effect of a mutation on the interaction
P842K	disrupting interaction

Variants of: B3
Details: with lcp2_human LCP2, Q13094

Variant	effect of a mutation on the interaction
P842K	disrupting interaction

Variants of: B3
Details: with lcp2_human LCP2, Q13094
Remark: another data set of the same source

Variant	effect of a mutation on the interaction
R586K	disrupting interaction

Variants of: B3
Details: with lcp2_human LCP2, Q13094
Remark: another data set of the same source

Variant	effect of a mutation on the interaction
R694K	disrupting interaction
R696K	disrupting interaction

Variants of: B4
Details: with vav_human VAV1, P15498

Variant	effect of a mutation on the interaction
R694K	disrupting interaction
R696K	disrupting interaction

Variants of: B4
Details: with vav_human VAV1, P15498
Remark: another data set of the same source

Variant	effect of a mutation on the interaction
R586K	disrupting interaction

Variants of: B4
Details: with vav_human VAV1, P15498
Remark: another data set of the same source

Variant	effect of a mutation on the interaction
P842K	disrupting interaction
